Results reported in paper PMC4411306, “Osmosensing and scaffolding functions of the oligomeric four-transmembrane domain osmosensor Sho1” (Nature Communications, 2015).
Changes are numbered by the printed parent chain. Names and notes keep the numbering of the source.

B1: HA-Sho1* V105C (natural protein, Saccharomyces cerevisiae, UniProt P40073 1-367, looked up)
chain: MSISSKIRPTPRKPSRMATDHSFKMKKFYADPFAISSISLAIVSWVIAIGGSISSASTNESFPRFTWWGIVYQFLIISSLMLFYSFDLVDHYRIFITTSIAVAFCYNTNSATNLVYADGPKKAAASAGVILLSIINLIWILYYGGDNASPTNRWIDSFSIKGIRPSPLENSLHRARRRGNRNTTPYQNNVYNDAIRDSGYATQFDGYPQQQPSHTNYVSSTALAGFENTQPNTSEAVNLHLNTLQQRINSASNAKETNDNSNNQTNTNIGNTFDTDFSNGNTETTMGDTLGLYSDIGDDNFIYKAKALYPYDADDDDAYEISFEQNEILQVSDIEGRWWKARRANGETGIIPSNYVQLIDGPEEMHR
notes: Sho1, S. cerevisiae, Cys-less (C78S C85S) with a single Cys; source: S. cerevisiae KT079 (sho1Δ), GAL1 promoter, in membrane fraction; not shown: HA, N-terminal, kept
B2: HA-Sho1* S54C (natural protein, Saccharomyces cerevisiae, UniProt P40073 1-367, looked up)
chain: B1 chain with S54C, C105V
notes: as for B1
B3: HA-Sho1* A123C (natural protein, Saccharomyces cerevisiae, UniProt P40073 1-367, looked up)
chain: B1 chain with C105V, A123C
notes: as for B1
B4: HA-Sho1* I53C (natural protein, Saccharomyces cerevisiae, UniProt P40073 1-367, looked up)
chain: B1 chain with I53C, C105V
notes: as for B1
B5: HA-Sho1* N109C (natural protein, Saccharomyces cerevisiae, UniProt P40073 1-367, looked up)
chain: B1 chain with C105V, N109C
notes: as for B1
B6: HA-Sho1* T112C (natural protein, Saccharomyces cerevisiae, UniProt P40073 1-367, looked up)
chain: B1 chain with C105V, T112C
notes: Sho1, S. cerevisiae, Cys-less (C78S C85S) with a single Cys in TM3; source: S. cerevisiae KT079 (sho1Δ), GAL1 promoter, in membrane fraction; not shown: HA, N-terminal, kept
B7: HA-Sho1* G50C (natural protein, Saccharomyces cerevisiae, UniProt P40073 1-367, looked up)
chain: B1 chain with G50C, C105V
notes: Sho1, S. cerevisiae, Cys-less (C78S C85S) with a single Cys in TM1; source: S. cerevisiae KT079 (sho1Δ), GAL1 promoter, in membrane fraction; in intact cells; not shown: HA, N-terminal, kept
B8: HA-Sho1* T66C (natural protein, Saccharomyces cerevisiae, UniProt P40073 1-367, looked up)
chain: B1 chain with T66C, C105V
notes: Sho1, S. cerevisiae, Cys-less (C78S C85S) with a single Cys in TM2; also called Sho1-FL-T66C; source: S. cerevisiae KT079 (sho1Δ), GAL1 promoter, in membrane fraction; not shown: HA, N-terminal, kept
B9: HA-Sho1*-A124C (natural protein, Saccharomyces cerevisiae, UniProt P40073 1-367, looked up)
chain: B1 chain with C105V, A124C
notes: Sho1, S. cerevisiae, Cys-less (C78S C85S) with a single Cys in TM4; source: S. cerevisiae KT079 (sho1Δ), GAL1 promoter, in membrane fraction; S. cerevisiae KY590-1, GAL1 promoter, in intact cells, then lysate; not shown: HA, N-terminal, kept
B10: HA-Sho1* T66C I94C (natural protein, Saccharomyces cerevisiae, UniProt P40073 1-367, looked up)
chain: B1 chain with T66C, I94C, C105V
notes: Sho1, S. cerevisiae, Cys-less (C78S C85S) with Cys in TM2 and TM3; source: S. cerevisiae KT079 (sho1Δ), GAL1 promoter, in membrane fraction; not shown: HA, N-terminal, kept
B11: HA-Sho1* T66C T112C (natural protein, Saccharomyces cerevisiae, UniProt P40073 1-367, looked up)
chain: B1 chain with T66C, C105V, T112C
notes: Sho1, S. cerevisiae, Cys-less (C78S C85S) with Cys in TM2 and TM3; also called T/C T/C; source: S. cerevisiae KT079 (sho1Δ), GAL1 promoter, in membrane fraction; not shown: HA, N-terminal, kept
B12: HA-Sho1* G50C A124C (natural protein, Saccharomyces cerevisiae, UniProt P40073 1-367, looked up)
chain: B1 chain with G50C, C105V, A124C
notes: Sho1, S. cerevisiae, Cys-less (C78S C85S) with Cys in TM1 and TM4; also called G/C A/C; source: S. cerevisiae KT079 (sho1Δ), GAL1 promoter, in membrane fraction; not shown: HA, N-terminal, kept
B13: HA-Sho1* I94C T112C (natural protein, Saccharomyces cerevisiae, UniProt P40073 1-367, looked up)
chain: B1 chain with I94C, C105V, T112C
notes: Sho1, S. cerevisiae, Cys-less (C78S C85S) with two Cys in TM3; source: S. cerevisiae KT079 (sho1Δ), GAL1 promoter, in membrane fraction; not shown: HA, N-terminal, kept

Target: the molecule itself
Assay: cross-linking; spontaneous disulfide bond formation: membrane fractions without chemical crosslinker, SDS–PAGE without 2-ME, anti-HA blot
For B1, the “stoichiometry N” value was 2. In the case of B2, the “stoichiometry N” value is reported as 2. In the case of B3, the “stoichiometry N” value is reported as 2. For B4, the “stoichiometry N” value was 2. In the case of B5, the “stoichiometry N” value is reported as 2.

Target: the molecule itself
Assay: cross-linking; membrane fraction of cells expressing a single-Cys mutant of HA-Sho1*; homo-trifunctional crosslinker TMEA; SDS–PAGE, anti-HA blot
With B6 the “stoichiometry N” value was 3. For B7, the “stoichiometry N” value was 2. B8 was tested, and the “stoichiometry N” value was 3. In the case of B9, the “stoichiometry N” value is reported as 2.

Target: the molecule itself
Assay: cross-linking; detergent-free membrane fraction of sho1Δ cells expressing a Cys mutant of HA-Sho1*; 0.2 mM bifunctional thiol crosslinker (o-PDM, p-PDM or BMH), 20 min, 25 °C; SDS–PAGE, anti-HA blot
For B10, the “stoichiometry N” value was 3. For B11, the “stoichiometry N” value was 3. For B12, the “stoichiometry N” value was 2. For B13, the “stoichiometry N” value was 3.
